How the values were obtained:
Experiment in all cases: cell-based or functional assay
[1] = target: hemagglutinin (HA) of influenza virus H1N1 A/California/07/09 (influenza A virus)
[2] = target: hemagglutinin (HA) of influenza virus H5N1 A/Vietnam/1194/04 (influenza A virus)
[3] = target: hemagglutinin (HA) of influenza virus H1N1 A/Puerto Rico/8/34-MA (influenza A virus)
[4] = target: hemagglutinin (HA) of influenza virus H3N2 A/Wisconsin/67/05 (influenza A virus)
[5] = target: HA of H3N2 A/Brisbane/10/2007 (influenza A virus)
[6] = target: HA of H1N1 A/Puerto Rico/8/34-MA (influenza A virus)
[7] = target: HA of H5N1 A/Vietnam/1194/04 (influenza A virus)
[8] = target: HA of H1N1 A/New Caledonia/20/1999 (influenza A virus)
[9] = target: HA of H7N3 A/NIBRG/60 (A/mallard/NL/12/00) (influenza A virus)
[10] = target: hemagglutinin (HA) of influenza B/Malaysia/2506/04 (Victoria) (influenza B virus)
[11] = target: hemagglutinin (HA) of influenza B/Massachusetts/02/12 (Yamagata) (influenza B virus)
[12] = target: hemagglutinin (HA) of influenza B/Florida/04/06 (Yamagata) (influenza B virus)
[13] = target: hemagglutinin (HA) of influenza B/Harbin/7/94 (Yamagata) (influenza B virus)
[14] = target: hemagglutinin (HA) of influenza B/Lee/40 (Old) (influenza B virus) (UniProt P03460)
[15] = target: hemagglutinin (HA) of influenza virus H7N3 A/NIBRG/60 (A/mallard/Netherlands/12/00) (influenza A virus)
[16] = target: hemagglutinin (HA) of influenza virus H3N2 A/Brisbane/10/07 (influenza A virus)
[17] = target: hemagglutinin (HA) of influenza virus B/Florida/04/06 (Yamagata) (influenza B virus)
[18] = target: hemagglutinin (HA) of influenza virus H1N1 A/New Caledonia/20/99 (influenza A virus)
[19] = target: hemagglutinin (HA) of influenza virus H7N7 A/PR8 H7N7-NY (influenza A virus)

| Binder | neutralization titer [1] | neutralization titer [2] | neutralization titer [3] | neutralization titer [4] | average neutralization titer [15] | average neutralization titer [19] | average neutralization titer [4] | other results |
| --- | --- | --- | --- | --- | --- | --- | --- | --- |
| MD1213 (VHH) EVQLVESGGGLVQAGGSLKLSCAASGRTYAMGWFRQAPGKEREFVAHINALGTRTYYSDSVKGRFTISRDNAKNTEYLEMNNLKPEDTAVYYCTAQGQWRAAPVAVAAEYEFWGQGTQVTVSSAAAGGGGSGGGGSGGGGSEVQLVESGGGLVQAGGSLKLSCAASGRTYAMGWFRQAPGKEREFVAHINALGTRTYYSDSVKGRFTISRDNAKNTEYLEMNNLKPEDTAVYYCTAQGQWRAAPVAVAAEYEFWGQGTQVTVSS | 2.4 nM | < 1000 nM | 27.8 nM | 18.6 nM | – | – | – | – |
| SD1034 (VHH) VHH: EVQLVESGGGLVQAGGSLRLSCAASGTIFGIRVNTMGWYRQAPGEQRELVATITRSGGTNYADSVKDRFTISGDFAKDTVYLQMMHLKPEDTAVYYCNGRWALTDYWGQGTQVTVSS | – | – | – | – | – | – | – | VNA titer [5]: > 1000 nM; VNA titer [6]: 756 nM; VNA titer [7]: 722 nM; VNA titer [8]: 161 nM; VNA titer [9]: > 1000 nM |
| MD1214 (bispecific antibody) EVQLVESGGGLVQPGGSLRLSCAVSISIFDIYAMDWYRQAPGKQRDLVATSFRDGSTNYADSVKGRFTISRDNAKNTLYLQMNSLKPEDTAVYLCHVSLYRDPLGVAGGMGVYWGKGALVTVSSAAAGGGGSGGGGSGGGGSEVQLVESGGGLVQAGGSLKLSCAASGRTYAMGWFRQAPGKEREFVAHINALGTRTYYSDSVKGRFTISRDNAKNTEYLEMNNLKPEDTAVYYCTAQGQWRAAPVAVAAEYEFWGQGTQVTVSS | 1.4 nM | 0.9 nM | 7.5 nM | 12.5 nM | – | – | – | – |
| SD3087 (VHH) VHH: EVQLLESGGGLVQPGGSLRLSCAASGFTLENKAIGWFRQAPGKEREGVLCISKSGSWTYYADSVKGRFTISRDNSKNTVYLQMNSLRPEDTAVYYCATTTAGGGLCWDGTTFSRLASSWGQGTLVTVSS | – | – | – | – | – | – | – | VNA IC50 [10]: 81 nM; VNA IC50 [11]: 104 nM; VNA IC50 [12]: 160 nM; VNA IC50 [13]: 201 nM; VNA IC50 [14]: 91 nM |
| MD2303 (bispecific antibody) EVQLVESGGGLVQPGGSLRLSCAVSISIFDIYAMDWYRQAPGKQRDLVATSFRDGSTNYADSVKGRFTISRDNAKNTLYLQMNSLKPEDTAVYLCHVSLYRDPLGVAGGMGVYWGKGALVTVSSGGGGSGGGGSEVQLVESGGGLVQAGGSLKLSCAASGRTYAMGWFRQAPGKEREFVAHINALGTRTYYSDSVKGRFTISRDNAKNTEYLEMNNLKPEDTAVYYCTAQGQWRAAPVAVAAEYEFWGQGTQVTVSSGGGGSGGGGSEVQLVESGGGLVQPGGSLRLSCAATGFTLENKAIGWFRQTPGSEREGVLCISKSGSWTYYTDSMRGRFTISRDNAENTVYLQMDSLKPEDTAVYYCATTTAGGGLCWDGTTFSRLASSWGQGTQVTVSS | – | – | – | – | 10.2 nM | 18.2 nM | 15 nM | average neutralization titer [16]: 12.8 nM; average neutralization titer [2]: 9.1 nM; average neutralization titer [17]: 412 nM; average neutralization titer [18]: 7.2 nM; average neutralization titer [3]: 9.1 nM |
| MD2406 (VHH) EVQLVESGGGLVQPGGSLRLSCAVSISIFDIYAMDWYRQAPGKQRDLVATSFRDGSTNYADSVKGRFTISRDNAKNTLYLQMNSLKPEDTAVYLCHVSLYRDPLGVAGGMGVYWGKGALVTVSSGGGGSGGGGSEVQLVESGGGLVQPGGSLRLSCAVSISIFDIYAMDWYRQAPGKQRDLVATSFRDGSTNYADSVKGRFTISRDNAKNTLYLQMNSLKPEDTAVYLCHVSLYRDPLGVAGGMGVYWGKGALVTVSSGGGGSGGGGSEVQLVESGGGLVQPGGSLRLSCAVSISIFDIYAMDWYRQAPGKQRDLVATSFRDGSTNYADSVKGRFTISRDNAKNTLYLQMNSLKPEDTAVYLCHVSLYRDPLGVAGGMGVYWGKGALVTVSSGGGGSGGGGSEVQLVESGGGLVQPGGSLRLSCAVSISIFDIYAMDWYRQAPGKQRDLVATSFRDGSTNYADSVKGRFTISRDNAKNTLYLQMNSLKPEDTAVYLCHVSLYRDPLGVAGGMGVYWGKGALVTVSS | – | – | – | – | 4.6 nM | 11 nM | 4.6 nM | – |
| MD1216 (bispecific antibody) EVQLVESGGGLVQPGGSLRLSCAVSISIFDIYAMDWYRQAPGKQRDLVATSFRDGSTNYADSVKGRFTISRDNAKNTLYLQMNSLKPEDTAVYLCHVSLYRDPLGVAGGMGVYWGKGALVTVSSAAAGGGGSGGGGSGGGGSGGGGSGGGGGGSGGGGSGGGGSGGGGSGGGGSGGGGSGGGGSEVQLVESGGGLVQAGGSLKLSCAASGRTYAMGWFRQAPGKEREFVAHINALGTRTYYSDSVKGRFTISRDNAKNTEYLEMNNLKPEDTAVYYCTAQGQWRAAPVAVAAEYEFWGQGTQVTVSS | 1.4 nM | 3.4 nM | 9.7 nM | 12.1 nM | – | – | – | – |
| MD2317 (bispecific antibody) EVQLVESGGGLVQPGGSLRLSCAVSISIFDIYAMDWYRQAPGKQRDLVATSFRDGSTNYADSVKGRFTISRDNAKNTLYLQMNSLKPEDTAVYLCHVSLYRDPLGVAGGMGVYWGKGALVTVSSGGGGSGGGGSEVQLVESGGGLVQAGDSLRISCAASGRTLSIYSMGWFRQAPGKEREFVATIGWNSGRTFYPDSLKGRFTISRDNARNTLYLQMNNLRPEDTAVYYCAAAKGPLRLSSQADYWGQGTQVTVSSGGGGSGGGGSEVQLVESGGGLVQPGGSLRLSCAATGFTLENKAIGWFRQTPGSEREGVLCISKSGSWTYYTDSMRGRFTISRDNAENTVYLQMDSLKPEDTAVYYCATTTAGGGLCWDGTTFSRLASSWGQGTQVTVSS | – | – | – | – | 12.8 nM | 12.8 nM | 12.8 nM | – |
| MD1215 (VHH) EVQLVESGGGLVQAGGSLKLSCAASGRTYAMGWFRQAPGKEREFVAHINALGTRTYYSDSVKGRFTISRDNAKNTEYLEMNNLKPEDTAVYYCTAQGQWRAAPVAVAAEYEFWGQGTQVTVSSAAAGGGGSGGGGSGGGGSGGGGSGGGGGGSGGGGSGGGGSGGGGSGGGGSGGGGSGGGGSEVQLVESGGGLVQAGGSLKLSCAASGRTYAMGWFRQAPGKEREFVAHINALGTRTYYSDSVKGRFTISRDNAKNTEYLEMNNLKPEDTAVYYCTAQGQWRAAPVAVAAEYEFWGQGTQVTVSS | 4.1 nM | 918 nM | 39.6 nM | 34.1 nM | – | – | – | – |
| MD2322 (VHH) EVQLVESGGGLVQPGGSLRLSCAVSISIFDIYAMDWYRQAPGKQRDLVATSFRDGSTNYADSVKGRFTISRDNAKNTLYLQMNSLKPEDTAVYLCHVSLYRDPLGVAGGMGVYWGKGALVTVSSGGGGSGGGGSEVQLVESGGGLVQPGGSLRLSCAVSISIFDIYAMDWYRQAPGKQRDLVATSFRDGSTNYADSVKGRFTISRDNAKNTLYLQMNSLKPEDTAVYLCHVSLYRDPLGVAGGMGVYWGKGALVTVSSGGGGSGGGGSEVQLVESGGGLVQPGGSLRLSCAVSISIFDIYAMDWYRQAPGKQRDLVATSFRDGSTNYADSVKGRFTISRDNAKNTLYLQMNSLKPEDTAVYLCHVSLYRDPLGVAGGMGVYWGKGALVTVSS | – | – | – | – | 6.1 nM | 14.7 nM | 7.3 nM | – |
| SD3092 (VHH) VHH: EVQLVESGGGLVQPGGSLRLSCAISGLSLDTYAVGWFRQAPGKEREGVSCISSGHGMTYYADSVKGRFTISTDNSKNTLYLQMNSLRAEDTAVYYCATESRYYCSDNWPAPQRYIYWGQGTLVTVSS | – | – | – | – | – | – | – | VNA IC50 [10]: 40 nM; VNA IC50 [11]: > 1000 nM; VNA IC50 [12]: > 1000 nM; VNA IC50 [13]: > 1000 nM; VNA IC50 [14]: 40 nM |
| MD2320 (bispecific antibody) EVQLVESGGGLVQAGDSLRISCAASGRTLSIYSMGWFRQAPGKEREFVATIGWNSGRTFYPDSLKGRFTISRDNARNTLYLQMNNLRPEDTAVYYCAAAKGPLRLSSQADYWGQGTQVTVSSGGGGSGGGGSEVQLVESGGGLVQPGGSLRLSCAVSISIFDIYAMDWYRQAPGKQRDLVATSFRDGSTNYADSVKGRFTISRDNAKNTLYLQMNSLKPEDTAVYLCHVSLYRDPLGVAGGMGVYWGKGALVTVSSGGGGSGGGGSEVQLVESGGGLVQPGGSLRLSCAATGFTLENKAIGWFRQTPGSEREGVLCISKSGSWTYYTDSMRGRFTISRDNAENTVYLQMDSLKPEDTAVYYCATTTAGGGLCWDGTTFSRLASSWGQGTQVTVSS | – | – | – | – | 15.3 nM | 15.3 nM | > 1000 nM | – |
| SD3085 (VHH) VHH: EVQLVESGGGLVQPGGSLRLSCAASGFTFSTSWMYWLRQAPGKGLEWVSVINTDGGTYYADSVKGRFTISRDNSKNTLYLQMNSLRAEDTAVYYCAKDWGGPEPTRGQGTLVTVSS | – | – | – | – | – | – | – | VNA IC50 [10]: 13 nM; VNA IC50 [11]: 32 nM; VNA IC50 [12]: 64 nM; VNA IC50 [13]: 228 nM; VNA IC50 [14]: > 1000 nM |
